Results published in US20180037631A1 (Bristol-Myers Squibb, published 2018).
Like-named read-outs stand apart in the source and are kept apart here.

Experiments:
[1] = molecular target: T1, IGF-IR on human tumour cells (H292, MCF-7, RH41) (human, UniProt P08069 31-1367); assay: cell-based or functional assay
[2] = molecular target: T2, EGFR on the surface of human tumour cells (A431, H292) (human, UniProt P00533 25-1210); assay: cell-based or functional assay
[3] = molecular target: T3, Recombinant human EGFR-Fc (aa 1-645 of the extracellular domain of human EGFR fused to human Fc) (human, UniProt P00533 25-645); assay: SPR Biacore, EGFR645-Fc; against I1-GS10-E5 Pegylated
T3 construct: range 1-645; bought from R&D Systems; also called EGFR645-Fc; EGFR-Fc (HER-1); not shown: human Fc

[4] = molecular target: T3, Recombinant human EGFR-Fc (aa 1-645 of …); assay: SPR Biacore
[5] = molecular target: T4, IGF1R-Fc (extracellular domain of human IGF1R aa 1-932 fused to hinge and constant regions of human IgG1) (human, UniProt P08069 31-932); assay: SPR Biacore
T4 construct: range 1-932; made in house by transient transfection, purified on Protein A; also called IGF-IR-Fc; not shown: hinge and constant regions of human IgG1

[6] = molecular target: T4, IGF1R-Fc (extracellular domain of human …); assay: SPR Biacore, IGF1R-Fc; against I1-GS10-E5 pegylated
[7] = molecular target: T3, Recombinant human EGFR-Fc (aa 1-645 of …); assay: SPR Biacore, EGFR645-Fc
[8] = molecular target: T4, IGF1R-Fc (extracellular domain of human …); assay: SPR Biacore, IGF1R-Fc
mouse EGFR = mouse EGFR (mouse, UniProt Q01279 25-647, limits assumed); assay: SPR Biacore
monkey EGFR = monkey EGFR (monkey); assay: SPR Biacore
rat EGFR = rat EGFR (rat, UniProt A0ABK0LZB0 35-1214); assay: SPR Biacore
[9] = molecular target: T1, IGF-IR on human tumour cells (H292, …); assay: cell-based or functional assay; remark: listed apart in the source
[10] = molecular target: T1, IGF-IR on human tumour cells (H292, …); assay: cell-based or functional assay; remark: listed apart in the source
[11] = molecular target: T1, IGF-IR on human tumour cells (H292, …); assay: cell-based or functional assay; remark: listed apart in the source
[12] = molecular target: T2, EGFR on the surface of human tumour …; assay: cell-based or functional assay; remark: listed apart in the source
[13] = molecular target: T3, Recombinant human EGFR-Fc (aa 1-645 of …)
[14] = molecular target: T4, IGF1R-Fc (extracellular domain of human …)
[15] = molecular target: T4, IGF1R-Fc (extracellular domain of human …); remark: listed apart in the source
[16] = molecular target: T2, EGFR on the surface of human tumour …; assay: cell-based or functional assay; remark: listed apart in the source
[17] = molecular target: T3, Recombinant human EGFR-Fc (aa 1-645 of …); remark: listed apart in the source
[18] = molecular target: T2, EGFR on the surface of human tumour …

pIGFR IC50 [1] [nM]	pEGFR IC50 [2] [nM]	pERK IC50 [2] [nM]	ΔKd (fold) [3] [fold]	Δka (fold) [3] [fold]	Δkd (fold) [3] [fold]	Kd [4] [nM]	Kd [5] [nM]	ΔKd (fold) [6] [fold]	Δka (fold) [6] [fold]	Δkd (fold) [6] [fold]	Kd [7] [nM]	koff [7] [s⁻¹]	kon [7] [M⁻¹ s⁻¹]	Kd [8] [nM]	koff [8] [s⁻¹]	kon [8] [M⁻¹ s⁻¹]	Kd (mouse EGFR) [nM]	Kd (monkey EGFR) [nM]	Kd (rat EGFR) [nM]	further results	Binder
1.2	28.7	19	2	1.1	1.6	1.4	0.25	1	1	1	1.4	4.52e-05	33400	0.25	0.000265	1.07e+06					I1-GS10-E5-GSGC pegylated (designed binder, PEG on the Cys of the GSGC tail of E5, alternative clone of I1-GS10-E5 pegylated; also called I1-GS10-E5-GSGC(4)) MGVSDVPRDLEVVAATPTSLLISWSARLKVARYYRITYGETGGNSPVQEFTVPKNVYTATISGLKPGVDYTITVYAVTRFRDYQPISINYRTEIEKGSGSGSGSGSGSGSGSGSGSVSDVPRDLEVVAATPTSLLISWWAPVDRYQYYRITYGETGGNSPVQEFTVPRDVYTATISGLKPGVDYTITVYAVTDYKPHADGPHTYHESPISINYRTEGSGCHHHHHH
2.2																	3.4	5.1	3.6	inhibition of RH41 cell proliferation, IC50 [9]: 0.2 nM	I1-GS10-E5 pegylated, His-tagged (designed binder, 40 kDa branched PEG on the Cys of the C-terminal Cys tail, also called I1-GS10-E5 (with Peg)) MGVSDVPRDLEVVAATPTSLLISWSARLKVARYYRITYGETGGNSPVQEFTVPKNVYTATISGLKPGVDYTITVYAVTRFRDYQPISINYRTEIDKGSGSGSGSGSGSGSGSGSGSVSDVPRDLEVVAATPTSLLISWWAPVDRYQYYRITYGETGGNSPVQEFTVPRDVYTATISGLKPGVDYTITVYAVTDYKPHADGPHTYHESPISINYRTEIDKPCQHHHHHH
																	2.7	4.4	2.9	IC50, IGF1-stimulated IGFR phosphorylation, H292 cells, ELISA [10]: 0.5 nM	I1-GS10-E105 pegylated, His-tagged (designed binder, 40 kDa branched PEG on the Cys of the C-terminal Cys tail) MGVSDVPRDLEVVAATPTSLLISWSARLKVARYYRITYGETGGNSPVQEFTVPKNVYTATISGLKPGVDYTITVYAVTRFRDYQPISINYRTEIDKGSGSGSGSGSGSGSGSGSGSVSDVPRDLEVVAATPTSLLISWDAPTSRYQYYRITYGETGGNSPVQEFTVPGGLSTATISGLKPGVDYTITVYAVTDYKPHADGPHTYHESPISINYRTEIDKPCQHHHHHH
2.2	68.4	30	1.6	0.6	2.4	1.7	0.26	1	1	0.9	1.7	3.04e-05	17800	0.26	0.000279	1.07e+06					I1-GS10-E5(S62C) pegylated (designed binder, PEG on Cys at position 62 of E5 (position of SEQ ID NO: 1), also called I1-GS10-E5(S62C)(6)) MGVSDVPRDLEVVAATPTSLLISWSARLKVARYYRITYGETGGNSPVQEFTVPKNVYTATISGLKPGVDYTITVYAVTRFRDYQPISINYRTEIEKGSGSGSGSGSGSGSGSGSGSVSDVPRDLEVVAATPTSLLISWWAPVDRYQYYRITYGETGGNSPVQEFTVPRDVYTATICGLKPGVDYTITVYAVTDYKPHADGPHTYHESPISINYRTEHHHHHH
2.1	22.6	29	0.2	0.4	0.4	17.9	0.28	0.9	0.9	0.9	17.9	0.000193	10800	0.28	0.000281	986000					I1-GS10-E5(S91C) pegylated (designed binder, PEG on Cys at position 91 of E5 (position of SEQ ID NO: 1), also called I1-GS10-E5(S91C)(8)) MGVSDVPRDLEVVAATPTSLLISWSARLKVARYYRITYGETGGNSPVQEFTVPKNVYTATISGLKPGVDYTITVYAVTRFRDYQPISINYRTEIEKGSGSGSGSGSGSGSGSGSGSVSDVPRDLEVVAATPTSLLISWWAPVDRYQYYRITYGETGGNSPVQEFTVPRDVYTATISGLKPGVDYTITVYAVTDYKPHADGPHTYHESPICINYRTEHHHHHH
																				IC50, IGF1-stimulated IGFR phosphorylation, H292 cells, ELISA [11]: 19 nM; IC50, EGF-stimulated EGFR phosphorylation, A431 cells, In Cell Western [12]: 47 nM; IC50, EGF-stimulated EGFR phosphorylation, H292 cells, ELISA [12]: 25 nM; IC50, EGF-stimulated ERK phosphorylation, A431 cells, In Cell Western [12]: 42 nM; Kd [13]: 2.48 nM; koff [13]: 0.000291 s⁻¹; kon [13]: 117000 M⁻¹ s⁻¹; Kd [14]: 0.03 nM; koff [14]: 4.54e-05 s⁻¹; kon [14]: 1.37e+06 M⁻¹ s⁻¹	I1-GS10-E3, non-pegylated (designed binder) VSDVPRDLEVVAATPTSLLISWSARLKVARYYRITYGETGGNSPVQEFTVPKNVYTATISGLKPGVDYTITVYAVTRFRDYQPISINYRTEIDKGSGSGSGSGSGSGSGSGSGSVSDVPRDLEVVAATPTSLLISWLPGKLRYQYYRITYGETGGNSPVQEFTVPHDLRTATISGLKPGVDYTITVYAVTNMMHVEYSEYPISINYRTEIDKPSQ
																	13.9	7	10.7	Kd [15]: 0.43 nM; IC50, IGF1-stimulated IGFR phosphorylation, H292 cells, ELISA [10]: 0.7 nM; IC50, EGF-induced EGFR phosphorylation, A431 cells, In Cell Western [16]: 22 nM; IC50, EGF-induced ERK phosphorylation, A431 cells, In Cell Western [16]: 23 nM; IC50, EGF-stimulated EGFR phosphorylation, H292 cells, ELISA [16]: 8 nM; Kd [17]: 5.97 nM; IC50 [18]: 37.8 nM	I1-GS10-E85 pegylated, His-tagged (designed binder, 40 kDa branched PEG on the Cys of the C-terminal Cys tail) MGVSDVPRDLEVVAATPTSLLISWSARLKVARYYRITYGETGGNSPVQEFTVPKNVYTATISGLKPGVDYTITVYAVTRFRDYQPISINYRTEIDKGSGSGSGSGSGSGSGSGSGSVSDVPRDLEVVAATPTSLLISWTQGSTHYQYYRITYGETGGNSPVQEFTVPGMVYTATISGLKPGVDYTITVYAVTDYFDRSTHEYKYRTTPISINYRTEIDKPCQHHHHHH
																				IC50, IGF1-stimulated IGFR phosphorylation, H292 cells, ELISA [11]: 0.9 nM; IC50, EGF-stimulated EGFR phosphorylation, A431 cells, In Cell Western [12]: 302 nM; IC50, EGF-stimulated EGFR phosphorylation, H292 cells, ELISA [12]: 127 nM; IC50, EGF-stimulated ERK phosphorylation, A431 cells, In Cell Western [12]: 300 nM	I1-GS10-E1 pegylated, His-tagged (designed binder, 40 kDa branched PEG on the Cys of the C-terminal Cys tail) MGVSDVPRDLEVVAATPTSLLISWSARLKVARYYRITYGETGGNSPVQEFTVPKNVYTATISGLKPGVDYTITVYAVTRFRDYQPISINYRTEIDKGSGSGSGSGSGSGSGSGSGSVSDVPRDLEVVAATPTSLLISWVAGAEDYQYYRITYGETGGNSPVQEFTVPHDLVTATISGLKPGVDYTITVYAVTDMMHVEYTEHPISINYRTEIDKPCQHHHHHH
																				IC50, IGF1-stimulated IGFR phosphorylation, H292 cells, ELISA [11]: 2 nM; IC50, EGF-stimulated EGFR phosphorylation, A431 cells, In Cell Western [12]: 47 nM; IC50, EGF-stimulated EGFR phosphorylation, H292 cells, ELISA [12]: 46 nM; IC50, EGF-stimulated ERK phosphorylation, A431 cells, In Cell Western [12]: 50 nM	I1GS10-E3 (Pegylated) (designed binder, Cys of the C-terminal Cys tail conjugated to 40 kDa branched PEG) I/E tandem 10Fn3 chain: MGVSDVPRDLEVVAATPTSLLISWSARLKVARYYRITYGETGGNSPVQEFTVPKNVYTATISGLKPGVDYTITVYAVTRFRDYQPISINYRTEIDKGSGSGSGSGSGSGSGSGSGSVSDVPRDLEVVAATPTSLLISWLPGKLRYQYYRITYGETGGNSPVQEFTVPHDLRTATISGLKPGVDYTITVYAVTNMMHVEYSEYPISINYRTEIDKPCQHHHHHH
